Laboratory results taken from EP2974737A1 (Ablynx N.V., dated 2016).

Legend:
Experiment in all cases: SPR, interference factor immobilized; % of Fig. 9 reference
[1] = molecular target: T1, purified interference factor(s) from Donor A (human)
T1 construct: also called interference in serum from Donor A

[2] = molecular target: T2, purified interference factor(s) from Donor B (human)
T2 construct: the text names the donors 8, 19 and 30; also called interference in serum from Donor B

[3] = molecular target: T3, purified interference factor(s) from Donor C (human)
T3 construct: the text names the donors 8, 19 and 30; also called interference in serum from Donor C

Binder	interference binding, % of Reference Sequence [1] [%]	interference binding, % of Reference Sequence [2] [%]	interference binding, % of Reference Sequence [3] [%]
SEQ ID NO: 38 (VHH) EVQLVESGGGLVQPGGSLRLSCAASGFTFSSYAMSWVRQAPGKGLEWVSGIKSSGDSTRYAGSVKGRFTISRDNAKNTLYLQMNSLRPEDTAVYYCAKSRVSRTGLYTYDNRGQGTLVTVSSGGGGSGGGGSGGGGSGGGGSEVQLVESGGGLVQPGGSLRLSCAASGRTFNNYAMGWFRQAPGKEREFVAAITRSGVRSGVSAIYGDSVKDRFTISRDNAKNTLYLQMNSLRPEDTAVYYCAASAIGSGALRRFEYDYSGQGTLVTVSSA	9	25	7
SEQ ID NO: 65 (VHH) VHH: EVQLVESGGGLVQAGGSLRLSCAASRSIGRLDRMGWYRHRPGEPRELVATITGGSSINYGDSVKGRFTISIDNSKNTVYLQMNSLRPEDTAVYYCNFNKYVTSRDTWGQGTLVTVSS	73	121	64
SEQ ID NO: 69 (VHH) VHH: EVQLVESGGGLVQPGGSLRLSCAASRSIGRLDRMGWYRHRPGEPRELVATITGGSSINYGDSVKGRFTISIDNSKNTVYLQMNSLRPEDTAVYYCNFNKYVTSRDTWGQGTQVTVSS	80	120	84
SEQ ID NO: 72 (VHH) VHH: EVQLVESGGGLVQPGGSLRLSCAASRSIGRLDRMGWYRHRPGEPRELVATITGGSSINYGDSVKGRFTISIDNSKNTVYLQMNSLRPEDTAVYYCNFNKYVTSRDTWGQGTLVTVGG	70	47	56
SEQ ID NO: 77 (VHH) VHH: EVQLVESGGGLVQPGGSLRLSCAASRSIGRLDRMGWYRHRPGEPRELVATITGGSSINYGDSVKGRFTISIDNSKNTVYLQMNSLRPEDTAVYYCNFNKYVTSRDTWGQGTLVTVSS	2	12	13
SEQ ID NO: 75 (VHH) VHH: EVQLVESGGGLVQPGGSLRLSCAASRSIGRLDRMGWYRHRPGEPRELVATITGGSSINYGDSVKGRFTISIDNSKNTVYLQMNSLRPEDTAVYYCNFNKYVTSRDTWGQGTLVTVSS	1	11	16
SEQ ID NO: 76 (VHH) VHH: EVQLVESGGGLVQPGGSLRLSCAASRSIGRLDRMGWYRHRPGEPRELVATITGGSSINYGDSVKGRFTISIDNSKNTVYLQMNSLRPEDTAVYYCNFNKYVTSRDTWGQGTLVTVSS	2	17	20
SEQ ID NO: 66 (VHH) VHH: EVQLVESGGGSVQPGGSLRLSCAASRSIGRLDRMGWYRHRPGEPRELVATITGGSSINYGDSVKGRFTISIDNSKNTVYLQMNSLRPEDTAVYYCNFNKYVTSRDTWGQGTLVTVSS	81	29	84
SEQ ID NO: 70 (VHH) VHH: EVQLVESGGGLVQPGGSLRLSCAASRSIGRLDRMGWYRHRPGEPRELVATITGGSSINYGDSVKGRFTISIDNSKNTVYLQMNSLRPEDTAVYYCNFNKYVTSRDTWGQGTLVQVSS	90	105	98
SEQ ID NO: 71 (VHH) VHH: EVQLVESGGGLVQPGGSLRLSCAASRSIGRLDRMGWYRHRPGEPRELVATITGGSSINYGDSVKGRFTISIDNSKNTVYLQMNSLRPEDTAVYYCNFNKYVTSRDTWGQGTLVTVSG	88	105	87
SEQ ID NO: 78 (VHH) VHH: EVQLVESGGGLVRPGGSLRLSCAASRSIGRLDRMGWYRHRPGEPRELVATITGGSSINYGDSVKGRFTISIDNSKNTVYLQMNSLRPEDTAVYYCNFNKYVTSRDTWGQGTLVTVSS	96	96	100
SEQ ID NO: 82 (VHH) VHH: EVQLVESGGGLVQPGGSLRLSCAASRSIGRLDRMGWYRHRPGEPRELVATITGGSSINYGDSVKGRFTISIDNSKNTVYLQMNSLRAEDTAVYYCNFNKYVTSRDTWGQGTLVTVSS	96	80	100
SEQ ID NO: 68 (VHH) VHH: EVQLVESGGGLVQAGGSLRLSCAASRSIGRLDRMGWYRHRPGEPRELVATITGGSSINYGDSVKGRFTISIDNSKNTVYLQMNSLRPEDTAVYYCNFNKYVTSRDTWGQGTQVTVSS	38	115	49
SEQ ID NO: 67 (VHH) VHH: EVQLVESGGGLVQPGGSLRLSCAASRSIGRLDRMGWYRHRPGEPRELVATITGGSSINYGDSVKGRFTISIDNSKNTVYLQMNSLKPEDTAVYYCNFNKYVTSRDTWGQGTLVTVSS	102	117	96
SEQ ID NO: 74 (VHH) VHH: EVQLVESGGGLVQPGGSLRLSCAASRSIGRLDRMGWYRHRPGEPRELVATITGGSSINYGDSVKGRFTISIDNSKNTVYLQMNSLRPEDTAVYYCNFNKYVTSRDTWGQGTLVTVSS	4	41	33
SEQ ID NO: 81 (VHH) VHH: EVQLVESGGGVVQPGGSLRLSCAASRSIGRLDRMGWYRHRPGEPRELVATITGGSSINYGDSVKGRFTISIDNSKNTVYLQMNSLRPEDTAVYYCNFNKYVTSRDTWGQGTLVTVSS	94	50	89
SEQ ID NO: 79 (VHH) VHH: EVQLVESGGGLVQPGGSLRLSCAASRSIGRLDRMGWYRHRPGEPRELVATITGGSSINYGDSVKGRFTISIDNSKNTVYLQMNSLRPEDTAVYYCNFNKYVTSRDTWGQGTLVTVSS	1	17	13
SEQ ID NO: 73 (VHH) VHH: EVQLVESGGGLVQPGGSLRLSCAASRSIGRLDRMGWYRHRPGEPRELVATITGGSSINYGDSVKGRFTISIDNSKNTVYLQMNSLRPEDTAVYYCNFNKYVTSRDTWGQGTLVTVGG	6	8	9
SEQ ID NO: 80 (VHH) VHH: EVQLVESGGGLVQPGGSLRLSCAASRSIGRLDRMGWYRHRPGEPRELVATITGGSSINYGDSVKGRFTISIDNSKNTVYLQMNSLRPEDTAVYYCNFNKYVTSRDTWGQGTLVQVGG	65	5	58
SEQ ID NO: 43 (VHH) DVQLVESGGGLVQPGGSLRLSCAASGFILDYYAIGWFRQAPGKEREGVLCIDASDDITYYADSVKGRFTISRDNSKNTVYLQMNSLRPEDTAVYYCATPIGLSSSCLLEYDYDYWGQGTLVTVSSGGGGSGGGSEVQLLESGGGLVQPGGSLRLSCAASGFTFRSFGMSWVRQAPGKGPEWVSSISGSGSDTLYADSVKGRFTISRDNSKNTLYLQMNSLRPEDTAVYYCTIGGSLSRSSQGTLVTVSSA	3	20	–
SEQ ID NO: 47 (VHH) VHH: EVQLVESGGGLVQPGGSLRLSCAASGSVFKINVMAWYRQAPGKGRELVAGIISGGSTSYADSVKGRFTISRDNAKNTLYLQMNSLRPEDTAVYYCAFITTESDYDLGRRYWGQGTLVTVSS	1	–	–
SEQ ID NO: 42 (VHH) EVQLVESGGGLVQPGGSLRLSCAASGRTFSYNPMGWFRQAPGKGRELVAAISRTGGSTYYPDSVEGRFTISRDNAKRMVYLQMNSLRAEDTAVYYCAAAGVRAEDGRVRTLPSEYTFWGQGTQVTVSSAAAEVQLVESGGGLVQPGGSLRLSCAASGRTFSYNPMGWFRQAPGKGRELVAAISRTGGSTYYPDSVEGRFTISRDNAKRMVYLQMNSLRAEDTAVYYCAAAGVRAEDGRVRTLPSEYTFWGQGTQVTVSSA	1	4	–
